Assay results from the supplement of paper PMC12764529.
± gives the half width of the 95% confidence interval.

Assays:
[1] = folding stability dG unfold from chymotrypsin proteolysis; higher = more stable
Summary of the method: (§1)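 Digests were run with trypsin and chymotrypsin at 11 concentrations in threefold dilutions, plus a no-protease condition, on designed mini-proteins in a PA-tagged cDNA display construct. The mini-proteins were under 80 residues, had no cysteine, and were kept only when AlphaFold2 dimer inter-PAE was above 15. After sequencing, Bayesian fitting of the counts gave K50, from which unfolding free energy was derived against a sequence-predicted unfolded-state K50 and a shared folded-state K50, per protease or combined.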

[2] = folding stability dG unfold (combined trypsin and chymotrypsin); higher = more stable
Summary of the method: as §1

[3] = folding stability dG unfold from trypsin proteolysis; higher = more stable
Summary of the method: as §1

Sequence | folding stability dG unfold [1] | folding stability dG unfold [2] | folding stability dG unfold [3]
SAGKWVTIEIPIYIPGNPSQLKDLVEEIANILAAHGMKINVDVEVYPVDDYYIVKITVTVRMPPGMPIISAG [r5_217_TrROS] | 3.23 ± 0.1 kcal/mol | 3.41 ± 0.19 kcal/mol | 3.75 ± 0.17 kcal/mol
SAGKYKIKNVQFSNNSITIEIYDDGKPKAEIPIPPNFPNMKVDAEIDEDGSIKIKFRFNGQPQEIEIPPSAG [r5_533_TrROS] | 1.54 ± 0.17 kcal/mol | 1.25 ± 0.31 kcal/mol | 0.819 ± 0.057 kcal/mol
SAGLDIKKIEFDPNGYLRIEVVYDKNISIKEIIEEIKKLTGATVEKVEVKPTKNGVKAIFILKIDKNLKSAG [r5_774_TrMRF] | 3.052 ± 0.021 kcal/mol | 2.6 ± 0.11 kcal/mol | 1.12 ± 0.042 kcal/mol
SAGLEDAQKEKRFVIKIEIRHPNGEKVKMTIAFKPGDPEDIRDELRKMGMPPDDLNERNPNLKIDEIEPSAG [r5_430_TrROS] | 1.59 ± 0.079 kcal/mol | 1.29 ± 0.11 kcal/mol | 0.646 ± 0.084 kcal/mol
SAGLKVESQTYDPATGTATVTPPLEGVPPDYTITVTDTATGKKTTLPPDGDVTLSNPTGPVTVTLTRPASAG [r14_134_JUSTAS] | 0.354 ± 0.093 kcal/mol | 0.277 ± 0.074 kcal/mol | 0.152 ± 0.038 kcal/mol
SAGLKVRIRTKDGREIEIEVSEEEAERLVKELEDAGFTVERVEVEELEPEEEKEELEEEERELKEELEESAG [r5_645_TrROS_Hall] | 2.91 ± 0.069 kcal/mol | 2.72 ± 0.32 kcal/mol | 3.28 ± 0.27 kcal/mol
SAGLRIEPTPDYIKITMPGPNMANEIIKKIQEHFGDIEIDDIKPEPYPNGNNRVTIWIPLKNLPPELLKSAG [r5_857_TrROS] | 1.18 ± 0.085 kcal/mol | 1.06 ± 0.07 kcal/mol | 0.895 ± 0.028 kcal/mol
SAGMAEEAREAARLFASELAPRFGVEAEIPEVRVEFDPETGEVHVHLEVLFRLPEPRTVRRDFVLVLPLSAG [r5_381_TrMRF] | 1.92 ± 0.13 kcal/mol | 1.67 ± 0.1 kcal/mol | 1.3 ± 0.086 kcal/mol
SAGMAKVKLKVEVYFPKTGKPVTMEIEVEGLTLEEIIEEVKKAIEAIGLKIDPDAPVKIVITDIEVYPGSAG [r5_230_TrMRF] | 3.77 ± 0.039 kcal/mol | 3.77 ± 0.077 kcal/mol | 3.75 ± 0.11 kcal/mol
SAGMARIIPNPPVIEVVRKDGSKLVIPPEEIEELRAALEAKGGPYTPEEIAEAIRKLFPDYEVSIVPASAGG [r19_46_TrMRF] | -0.0899 ± 0.17 kcal/mol | -0.109 ± 0.22 kcal/mol | -0.284 ± 0.38 kcal/mol
SAGMDFPESYTPIASNGKTLVFKSPTEVYIVLYSPEGGSEVRSFTPGDESVLNPFLEELKKSDYVNLNISAG [r14_12_JUSTAS] | 1.1 ± 0.087 kcal/mol | 0.995 ± 0.093 kcal/mol | 0.695 ± 0.028 kcal/mol
SAGMDKPLKVLEIGGAILPNTGKVVLKAKVEDPDSNTPLDLTLTLPVVDPVTGKPYIFTASYTYESPLSAGG [r19_129_TrMRF] | 0.844 ± 0.17 kcal/mol | 0.681 ± 0.12 kcal/mol | 0.338 ± 0.13 kcal/mol
SAGMEAIRKKAEELAKKGKIFKITLTGPDGIPETKILSPEEFKKFLEEFPDPEAIASVEVEAYEPGKPISAG [r5_957_JUSTAS] | 3.78 ± 0.046 kcal/mol | 3.24 ± 0.1 kcal/mol | 2.35 ± 0.1 kcal/mol
SAGMEIEITGPNLEELAEKVAKELKEKNWSPPVTITLKEPGGKTVLKVTVEFNPPNPNEIKVTKEKVESAGG [r19_85_JUSTAS] | 0.902 ± 0.062 kcal/mol | 0.683 ± 0.18 kcal/mol | 0.571 ± 0.14 kcal/mol
SAGMEKAINLAKEYAKKLGLPLESINVTEIGNSVIIEMKIPEKGETITVNIPIHPDGTISLNIKFEKKKSAG [r5_888_JUSTAS] | 2.623 ± 0.019 kcal/mol | 2.09 ± 0.087 kcal/mol | 1.2 ± 0.037 kcal/mol
